In publication PMC6155126:

Key:
[1] = target: Ku70/80 (Ku70 subunit);Ku70/80 (Ku80 subunit);Pol λ WT (Homo sapiens;Homo sapiens;Homo sapiens, UniProt P12956;P13010;Q9UGP5 1-609;1-732;1-575, ||); assay: EMSA supershift; 20 nM Ku; EMSA: 50 mM Tris-HCl pH 7.5, 100 mM KCl, 2.5 mM MgCl2, 1 mM DTT, 4% glycerol, 0.05% Triton X-100, 0.1 mg/ml BSA, 10-20 nM DNA, 30 min at 25 °C; 4-5% native PAGE, 0.5x TBE, 4 °C; settings: protein: recombinant;recombinant;recombinant; tags: FLAG;FLAG;FLAG; copies: 1;1;1; label: 5' IRDye 700 on one strand; 5-nt gap
[2] = target: Ku70/80 (Ku70 subunit);Ku70/80 (Ku80 subunit);Pol λ WT;PAXX (cleaved) (Homo sapiens;Homo sapiens;Homo …, UniProt P12956;P13010;Q9UGP5;Q9BUH6 1-609;1-732;1-575;1-204, |||); assay: EMSA supershift; 20 nM Ku, 0.5 µM PAXX; EMSA: 50 mM Tris-HCl pH 7.5, 100 mM KCl, 2.5 mM MgCl2, 1 mM DTT, 4% glycerol, 0.05% Triton X-100, 0.1 mg/ml BSA, 10-20 nM DNA, 30 min at 25 °C; 4-5% native PAGE, 0.5x TBE, 4 °C; settings: protein: recombinant;recombinant;recombinant;recombinant; tags: FLAG;FLAG;FLAG;GST tag cleaved (PreScission); copies: 1;1;1;2; label: 5' IRDye 700 on one strand; 5-nt gap
[3] = target: Ku70/80 (Ku70 subunit);Ku70/80 (Ku80 subunit);PAXX (cleaved) (Homo sapiens;Homo sapiens;Homo sapiens, UniProt P12956;P13010;Q9BUH6 1-609;1-732;1-204, ||); assay: as above; settings: protein: recombinant;recombinant;recombinant; tags: FLAG;FLAG;GST tag cleaved (PreScission); copies: 1;1;2; label: 5' IRDye 700 on one strand; 5-nt gap
[4] = target: Ku70/80 (Ku70 subunit);Ku70/80 (Ku80 subunit);Pol λ R57A/L60A (RL) (Homo sapiens;Homo sapiens;Homo sapiens, UniProt P12956;P13010;Q9UGP5 1-609;1-732;1-575, ||R57A;L60A); assay: EMSA supershift; 20 nM Ku, 50 nM Pol λ-RL; mutant does not join DNA-bound Ku; EMSA: 50 mM Tris-HCl pH 7.5, 100 mM KCl, 2.5 mM MgCl2, 1 mM DTT, 4% glycerol, 0.05% Triton X-100, 0.1 mg/ml BSA, 10-20 nM DNA, 30 min at 25 °C; 4-5% native PAGE, 0.5x TBE, 4 °C; settings: protein: recombinant;recombinant;recombinant, tags: FLAG;FLAG;FLAG, copies: 1;1;1, label: IRDye 700 at 5' end of S5, 5-nt gap (CTATT of S4 unpaired), blunt outer ends
Sequence of Ku70/80 (Ku70 subunit);Ku70/80 (Ku80 subunit);Pol λ R57A/L60A (RL) (P12956 whole entry, chain 1 of 3): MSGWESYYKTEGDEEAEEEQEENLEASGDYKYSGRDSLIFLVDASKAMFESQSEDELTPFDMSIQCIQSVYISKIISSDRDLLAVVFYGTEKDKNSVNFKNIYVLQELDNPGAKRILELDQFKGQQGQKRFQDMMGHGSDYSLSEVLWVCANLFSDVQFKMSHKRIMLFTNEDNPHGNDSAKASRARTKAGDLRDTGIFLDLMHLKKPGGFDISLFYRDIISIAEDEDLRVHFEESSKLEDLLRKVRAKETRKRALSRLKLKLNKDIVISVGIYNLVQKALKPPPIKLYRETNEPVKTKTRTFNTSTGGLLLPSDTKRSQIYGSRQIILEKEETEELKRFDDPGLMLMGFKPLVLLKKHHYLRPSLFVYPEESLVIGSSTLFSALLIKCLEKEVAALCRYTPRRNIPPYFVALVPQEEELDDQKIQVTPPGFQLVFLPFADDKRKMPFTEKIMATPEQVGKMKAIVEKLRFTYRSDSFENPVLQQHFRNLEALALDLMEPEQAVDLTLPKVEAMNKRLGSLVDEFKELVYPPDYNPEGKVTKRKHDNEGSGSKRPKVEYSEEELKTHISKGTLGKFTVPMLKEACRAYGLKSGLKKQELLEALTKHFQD
Sequence of Ku70/80 (Ku70 subunit);Ku70/80 (Ku80 subunit);Pol λ R57A/L60A (RL) (P13010 whole entry, chain 2 of 3): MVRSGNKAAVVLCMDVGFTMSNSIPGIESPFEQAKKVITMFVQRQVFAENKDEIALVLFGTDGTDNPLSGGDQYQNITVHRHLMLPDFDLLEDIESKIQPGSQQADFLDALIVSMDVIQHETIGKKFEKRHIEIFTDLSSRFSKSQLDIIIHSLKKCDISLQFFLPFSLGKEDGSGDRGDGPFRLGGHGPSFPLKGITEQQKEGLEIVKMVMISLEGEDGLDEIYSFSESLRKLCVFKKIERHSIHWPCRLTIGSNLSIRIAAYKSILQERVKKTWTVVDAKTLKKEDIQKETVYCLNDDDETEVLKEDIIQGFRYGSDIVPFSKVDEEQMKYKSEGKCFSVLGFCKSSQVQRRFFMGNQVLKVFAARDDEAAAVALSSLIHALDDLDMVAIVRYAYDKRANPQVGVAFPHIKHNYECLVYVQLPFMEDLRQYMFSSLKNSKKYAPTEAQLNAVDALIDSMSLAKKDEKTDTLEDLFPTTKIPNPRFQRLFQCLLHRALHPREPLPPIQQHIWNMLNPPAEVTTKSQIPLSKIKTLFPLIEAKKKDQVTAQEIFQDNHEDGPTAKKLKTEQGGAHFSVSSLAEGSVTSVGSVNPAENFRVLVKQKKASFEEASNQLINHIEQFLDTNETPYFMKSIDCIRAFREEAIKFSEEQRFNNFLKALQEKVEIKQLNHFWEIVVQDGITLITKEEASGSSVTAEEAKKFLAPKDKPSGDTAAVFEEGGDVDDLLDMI
Sequence of Ku70/80 (Ku70 subunit);Ku70/80 (Ku80 subunit);Pol λ R57A/L60A (RL) (Q9UGP5 whole entry R57A/L60A, chain 3 of 3): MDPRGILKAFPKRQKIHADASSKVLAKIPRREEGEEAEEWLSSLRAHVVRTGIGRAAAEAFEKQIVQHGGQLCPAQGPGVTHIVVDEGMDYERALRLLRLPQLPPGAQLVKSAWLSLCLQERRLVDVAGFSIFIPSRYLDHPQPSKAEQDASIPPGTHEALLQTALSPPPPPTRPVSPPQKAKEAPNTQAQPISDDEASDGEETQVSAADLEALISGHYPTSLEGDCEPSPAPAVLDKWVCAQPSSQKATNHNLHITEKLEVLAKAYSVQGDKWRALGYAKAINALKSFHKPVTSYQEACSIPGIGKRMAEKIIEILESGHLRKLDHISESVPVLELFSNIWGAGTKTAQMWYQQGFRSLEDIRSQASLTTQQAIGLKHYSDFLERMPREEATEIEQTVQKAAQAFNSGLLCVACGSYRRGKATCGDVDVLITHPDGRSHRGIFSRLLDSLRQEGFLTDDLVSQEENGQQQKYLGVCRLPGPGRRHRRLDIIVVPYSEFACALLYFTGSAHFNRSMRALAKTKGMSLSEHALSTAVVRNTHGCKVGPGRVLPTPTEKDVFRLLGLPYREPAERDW

Sequence of Ku70/80 (Ku70 subunit);Ku70/80 (Ku80 subunit);Pol λ WT (P12956 whole entry, chain 1 of 3): as the sequence (P12956 whole entry, chain 1 of 3) above
Sequence of Ku70/80 (Ku70 subunit);Ku70/80 (Ku80 subunit);Pol λ WT (P13010 whole entry, chain 2 of 3): as the sequence (P13010 whole entry, chain 2 of 3) above
Sequence of Ku70/80 (Ku70 subunit);Ku70/80 (Ku80 subunit);Pol λ WT (Q9UGP5 whole entry, chain 3 of 3): as the sequence (Q9UGP5 whole entry R57A/L60A, chain 3 of 3) above, with A57R, A60L counted along it

Binder | binding result [1] | binding result [2] | binding result [3] | binding result [4]
5nt-gapped dsDNA 30-mer (dsDNA) DNA 1: ACTGGCCGTCGTTCTATTGTACTCACTGTGATC DNA 2: GATCACAGTGAGTAC DNA 3: AACGACGGCCAGT | binds | binds | binds | –
5nt-gapped dsDNA 33-mer (dsDNA, 5'-phosphate on the 13-mer) DNA 1: ACTGGCCGTCGTTCTATTGTACTCACTGTGATC DNA 2: GATCACAGTGAGTAC DNA 3: AACGACGGCCAGT | – | – | – | no binding
